Assay results from patent publication US20260234116A1, “CYTOTOXIC EPOXYKETONE COMPOUNDS, PRECURSORS, COMPOSITIONS, AND METHODS OF USE” (Memorial Sloan-Kettering Cancer Center, priority 2023, published 2026).
Blank lines part the entries; values can stand above or below the molecule they belong to.

What was measured:
EpnF [1] = molecular target: T1, EpnF (Streptomyces hygroscopicus, UniProt V5RMU9); test: Semiquantitative epoxide capture assay (EpnF-catalyzed epoxyketone formation); assay type: biochemical; conditions: 1 μM EpnF; for EpnF-catalyzed conversion to epoxyketone (epoxide capture): 240 μM β-ketoacid substrate (FIG. 2)
Method: Recombinant EpnF was diluted to 1 μM in 180 μL EpnF Buffer in an 1.5 mL Eppendorf tube. The β-ketoacid 11 was added at various concentrations to a total reaction volume of 200 μL. The mixture was incubated in a heated shaker at 37° C. and 225 rpm for 1 h. The reaction mixture (30 μL×3 technical replicates) was transferred to a white, opaque 96-well plate (PerkinElmer, OptiPlate-96). Each plate also contained 30 μL×3 technical replicates of EpnF Buffer as a negative control. To each well, 15 μL of 125 mM nicotinamide in EpnF Buffer was added and mixed by pipetting. The plate was sealed with an adhesive foil cover (VWR Adhesive Foil for Microplates) and heated in an oven at 80° C. for 1 h. The plate was cooled to rt and 25 μL of 15% (v/v) acetophenone in EtOH and 25 μL of 1 M potassium hydroxide in EtOH were added to each well, then mixed by pipetting. The plate was cooled on ice for 10 min, then 125 μL formic acid was added to each well. The plate was resealed and heated in an oven at 100° C. for 5 min. The plate was cooled on ice for 5-10 min, then analyzed (λex 370 nm, λem 430 nm) on a fluorescence plate reader (Molecular Devices Spectramax M3).
We adapted a reported epoxide capture assay [Nelis, H. J. C. F.; Sinsheimer, J. E. (1981) A sensitive fluorimetric procedure for the determination of aliphatic epoxides under physiological conditions. Anal. Biochem. 115, 151-157.] to 96-well plate format to detect formation of the epoxyketone products semiquantitatively. Each β-ketoacid substrate 11 was incubated with recombinant, purified EpnF (1 h), then reacted with nicotinamide and acetophenone (1 h) to form a fluorescent 1,6-naphthyridinone 24. The fluorescent signals were normalized to that resulting from the known substrate β-ketoacid 11n as a positive control [Zabala, D.; Cartwright, J. W.; Roberts, D. M.; Law, B. J. C.; Song, L.; Samborskyy, M.; Leadlay, P. F.; Micklefield, J.; Challis, G. L. (2016) A flavin-dependent decarboxylase-dehydrogenase-monooxygenase assembles the warhead of α,β-epoxyketone proteasome inhibitors. J. Am. Chem. Soc. 138, 4342-4345.].

EpnF [2] = molecular target: T1, EpnF; test: Enzyme kinetic analysis by SPE-MS/MS assay; assay type: biochemical; conditions: for efficiency of EpnF-catalyzed conversion compared to parent substrate 11a (in words): quantitative SPE-MS/MS assay
Method: (§1) SPE-MS/MS analyses were carried out on an Agilent RapidFire 365 High-Throughput Mass Spectrometry System with 6495 triple quadrupole mass spectrometer. Determination of initial velocity: EpnF stock at 100 μM was diluted 10-fold in EpnF Buffer to a 10 μM working solution, which was further diluted to 8 concentrations (10-0.005 μM) in EpnF Buffer (intermediate volume 1350 μL, concentrations calculated for 1500 μL theoretical final volume corresponding to addition of substrate solutions below). The 8 EpnF enzyme dilutions were aliquoted (90 μL) into the corresponding 8 tubes of PCR tube strips (12 strips, one per time point; Thermo Scientific, AB-2000). The β-ketoacid 11 (20 mM in EtOH) was diluted to 10 μM in EpnF Buffer, then 10 μL of this solution was added to each of the tubes (1 μM final concentration, 100 μL final volume) to initiate the reaction. Samples were incubated in a heated shaker at 37° C. and 225 rpm for up to 120 min, and one tube strip was removed at each time point. Each tube was quenched with 5% formic acid in EpnF Buffer (100 μL), pipetted vigorously, and flash frozen on dry ice. Samples were thawed then centrifuged to precipitate protein and transferred to a conical-bottom 96-well plate (Thermo Scientific/Nunc, 249944) for SPE-MS/MS analysis. Measurement of Km and Vmax: Using the data from the initial velocity experiments above, an appropriate EpnF enzyme concentration was selected for each β-ketoacid 11 at which the rate of conversion to the epoxyketone 12 remained linear at 10 min (0.50 μM for 11n and 0.05 μM for all other substrates). Each substrate (20 mM in EtOH) was diluted to 1 mM in EpnF Buffer, then diluted to 8 concentrations (100-0.5 μM) in EpnF Buffer (intermediate volume 1350 μL, concentrations calculated for 1500 μL theoretical volume corresponding to addition of enzyme solutions below). The 8 substrate dilutions were aliquoted (90 μL) into the corresponding 8 tubes of PCR tube strips (12 strips, one per time point; Thermo Scientific, AB-2000). The EpnF enzyme stock solution was diluted in EpnF Buffer to the appropriate concentration for each substrate, then 10 μL of this solution was added to each of the tubes (100 μL final volume) to initiate the reaction. For the 0-min time point, 5% formic acid in EpnF Buffer was added to the β-ketoacid substrate before addition of the enzyme. Samples were incubated in a heated shaker at 37° C. and 225 rpm for up to 10 min, and one tube strip was removed at each time point. Each tube was quenched by addition of 5% formic acid in EpnF Buffer (100 μL), pipetted vigorously, and flash frozen on dry ice. Samples were thawed then centrifuged to precipitate proteins and the supernatants were transferred to a conical-bottom 96-well plate (Thermo Scientific/Nunc, 249944) for SPE-MS/MS analysis. Km and Vmax values for each substrate were calculated by Michaelis-Menten analysis. To obtain a quantitative assessment of EpnF substrate specificity, we developed a kinetic assay (10 min) using SPE-MS/MS (solid-phase extraction/triple quadrupole mass spectrometry; Agilent RapidFire 365 with 6495 MS) to enable direct detection of both substrates and products.

[3] = during isolation and characterization; cited from earlier work
[4] = substrate: C=C(C)C[C@H](NC(=O)[C@H](CO)NC(=O)CCCCC(C)C)C(=O)C(C)(C)C(=O)O; test: Enzyme kinetic analysis by SPE-MS/MS assay; assay type: biochemical; conditions: other: 0.05 μM EpnF; 37.0 °C
Method: as §1

[5] = substrate: CC(C)CCCCC(=O)N[C@@H](C)C(=O)N[C@@H](CC(C)C)C(=O)C(C)(C)C(=O)O; test: Enzyme kinetic analysis by SPE-MS/MS assay; assay type: biochemical; conditions: other: 0.05 μM EpnF; 37.0 °C
Method: as §1

[6] = substrate: CC(C)CCCCC(=O)N[C@@H](CO)C(=O)N[C@@H](CC(C)C)C(=O)C(C)(C)C(=O)O; test: Enzyme kinetic analysis by SPE-MS/MS assay; assay type: biochemical; conditions: other: 0.05 μM EpnF; 37.0 °C
Method: as §1

[7] = substrate: CC(C)CCCCC(=O)N[C@H](C(=O)N[C@@H](CC(C)C)C(=O)C(C)(C)C(=O)O)C(C)O; test: Enzyme kinetic analysis by SPE-MS/MS assay; assay type: biochemical; conditions: other: 0.05 μM EpnF; 37.0 °C
Method: as §1

[8] = substrate: CC(C)C[C@H](NC(=O)[C@H](CO)NC(=O)c1ccccc1)C(=O)C(C)(C)C(=O)O; test: Enzyme kinetic analysis by SPE-MS/MS assay; assay type: biochemical; conditions: other: 0.05 μM EpnF; 37.0 °C
Method: as §1

[9] = substrate: CCCC(=O)N[C@@H](CO)C(=O)N[C@@H](CC(C)C)C(=O)C(C)(C)C(=O)O; test: Enzyme kinetic analysis by SPE-MS/MS assay; assay type: biochemical; conditions: other: 0.50 μM EpnF; 37.0 °C
Method: as §1

Molecule: C=C(C)C[C@H](NC(=O)[C@H](CO)NC(=O)CCCCC(C)C)C(=O)C(C)(C)C(=O)O [Compound 11b, (S)-4-((S)-3-Hydroxy-2-(6-methylheptanamido)propanamido)-2,2,6-trimethyl-3-oxohept-6-enoic acid]
EpnF-catalyzed formation of epoxyketone (epoxide capture) (EpnF [1]; 250 μM β-ketoacid substrate, 1 h, positive control 11n (FIG. 1)): lower levels
converted more efficiently than 11n (EpnF [2]; relative to 11n): ≈ 20 fold

Molecule: CC(C)CCCCC(=O)N[C@H](C(=O)N[C@@H](CC(C)C)C(=O)C(C)(C)C(=O)O)C(C)O (stereo partly drawn) [Compound 11l, (4S)-4-[(2S)-3-Hydroxy-2-(6-methylheptanamido)butanamido]-2,2,6-trimethyl-3-oxoheptanoic acid]
EpnF-catalyzed conversion to epoxyketone (epoxide capture) (EpnF [1]): tolerated
efficiency of EpnF-catalyzed conversion compared to parent substrate 11a (in words) (EpnF [2]): slightly lower efficiency

B1: EpnF (Streptomyces hygroscopicus) (protein)
chain: MSDSKSVNLFHRHGVPSFLEGIYQGRFEWDMISNFVAQDSADEKAGDAAVERLTDILRNRVNPTAVDATRELPEGLLEELRRTGFLNLQDSPDIGGLGLSSYNTFRVVQAAASWSVPVALVLGIQTAVGSGTYLRALPPGELHSYVEQRLLDGIISGSADTEPAGASNSARRTRAVPTDDGEAFLLTGEKIHIGNGPIADIVTVSAMLDEDGQDRPRLFFVETSDPGFSIRSRHEFMGVKGFPNAALVLDGVRVPRERMIVEVDPDTEVRITAELTMAVVRGRLHLITAPSLAISKLCLEWSRNFVNRRTIDGRPLGAREEIQHMVSSTMADVFAIQALAEWSLLPADQPDLGLNVAFEQNVTKAISAEICWRAADRTMDLLAGEGFETAPSKARRGAPALPLERFYRDARNLRISGGVSFLLQFWAARMSQFTYYGPDHAGQSAALSQDGGQQPCTDGLDPLNADHLRFAAAETRRLGAACQKFAADHPAPGLYEHQHRLIAFSRIADEILTMSVVLAKAARLHHEGRTEAQDLAAIYCAHARDRLAALWRQAEPVTAGPDHAAVSDAWLSGDDTYASLITGVITDVPPTADTHPGKR
Km [4]: 17.3 µM
kcat [4]: 0.114 s⁻¹
kcat/Km [4]: 6580 M⁻¹ s⁻¹
Km [5]: 4.70 µM
kcat [5]: 0.025 s⁻¹
kcat/Km [5]: 5320 M⁻¹ s⁻¹
Km [6]: 11.6 µM
kcat [6]: 0.071 s⁻¹
kcat/Km [6]: 6120 M⁻¹ s⁻¹
Km [7]: 13.3 µM
kcat [7]: 0.016 s⁻¹
kcat/Km [7]: 1200 M⁻¹ s⁻¹
Km [8]: 6.13 µM
kcat [8]: 0.0125 s⁻¹
kcat/Km [8]: 1880 M⁻¹ s⁻¹
Km [9]: 23.1 µM
kcat [9]: 0.0067 s⁻¹
kcat/Km [9]: 290 M⁻¹ s⁻¹

Continued, in another order:

efficiency of EpnF-catalyzed conversion compared to parent substrate 11a (in words) (EpnF [2]): slightly lower efficiency
Molecule: CC(C)C[C@H](NC(=O)[C@H](CO)NC(=O)c1ccccc1)C(=O)C(C)(C)C(=O)O [Compound 11o, (4S)-4-[(2S)-3-Hydroxy-2-(phenylformamido)propanamido]-2,2,6-trimethyl-3-oxoheptanoic acid]
EpnF-catalyzed conversion to epoxyketone (epoxide capture) (EpnF [1]): also tolerated

EpnF-catalyzed conversion to epoxyketone (epoxide capture) (EpnF [1]): permitted
solubility (kinetic parameters could not be determined) (EpnF [2]; EpnF Buffer): solubility limitations
Molecule: CCCCCCCCCC(=O)N[C@@H](CO)C(=O)N[C@@H](CC(C)C)C(=O)C(C)(C)C(=O)O [Compound 11q, (4S)-4-[(2S)-2-Decanamido-3-hydroxypropanamido]-2,2,6-trimethyl-3-oxoheptanoic acid]

EpnF-catalyzed conversion to epoxyketone (epoxide capture) (EpnF [1]): permitted
Molecule: CCCC(=O)N[C@@H](CO)C(=O)N[C@@H](CC(C)C)C(=O)C(C)(C)C(=O)O [Compound 11n, (4S)-4-((S)-2-Butyramido-3-hydroxypropanamido)-2,2,6-trimethyl-3-oxoheptanoic acid]
spontaneous decarboxylation [3]: can undergo spontaneous decarboxylation
